Paper PMC9747964 (Nature Communications, 2022)
Residue numbers refer to the chain shown, from its start.

Columns and labels:
Settings in all cases: protein: recombinant; tags: as P1; blunt
ComEAGs-A108Y [1] = target: T1, ComEAGs-A108Y (Geobacillus stearothermophilus (ATCC …, UniProt A0A0K9HI54 60-207, A108Y)); assay: MW-AUC; 1.5 uM DNA, 5:1 and 10:1 protein:DNA; >90% DNA bound; ~2:1 complex, 3.3-3.5 S; MW-AUC: 10 mM Tris pH 8, 100 mM KCl, 20 C; EMSA: 10 mM Tris pH 8, 100 mM KCl, 2.5% glycerol, 0.5 mM EDTA, 1 mM MgCl2, room temperature 15 min, 8% native gel in
T1 sequence: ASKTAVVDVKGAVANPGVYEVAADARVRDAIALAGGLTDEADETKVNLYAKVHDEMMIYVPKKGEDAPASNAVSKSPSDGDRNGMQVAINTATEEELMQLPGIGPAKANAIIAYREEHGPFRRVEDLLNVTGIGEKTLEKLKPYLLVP

ComEAGs-A108Y [2] = target: T1, ComEAGs-A108Y; assay: MW-AUC; 1.5 uM DNA, 10:1 protein:DNA; >90% DNA bound; ~4.7:1 complex, 6.3 S; MW-AUC: 10 mM Tris pH 8, 100 mM KCl, 20 C; EMSA: 10 mM Tris pH 8, 100 mM KCl, 2.5% glycerol, 0.5 mM EDTA, 1 mM MgCl2, room temperature 15 min, 8% native gel in
ComEAGs-K166A = target: T2, ComEAGs-K166A (Geobacillus stearothermophilus (ATCC …, UniProt A0A0K9HI54 60-207, K166A)); assay: EMSA; 0.5 uM DNA, 1 mM MgCl2; MW-AUC: 10 mM Tris pH 8, 100 mM KCl, 20 C; EMSA: 10 mM Tris pH 8, 100 mM KCl, 2.5% glycerol, 0.5 mM EDTA, 1 mM MgCl2, room temperature 15 min, 8% native gel in
T2 sequence: T1 sequence with Y49A, K107A

ComEAGs-K201A = target: T3, ComEAGs-K201A (Geobacillus stearothermophilus (ATCC …, UniProt A0A0K9HI54 60-207, K201A)); assay: as above
T3 sequence: T1 sequence with Y49A, K142A

B1: EAGs14bp (dsDNA)
DNA 1: GTAGGACCATCTGC
DNA 2: GCAGATGGTCCTAC
- binding result (ComEAGs-A108Y [1]): binds

B2: EAGs40bp (dsDNA)
DNA 1: CGTTAGCACTGTGAATATCACTACAGCAACCTTAGAATCG
DNA 2: CGATTCTAAGGTTGCTGTAGTGATATTCACAGTGCTAACG
- binding result (ComEAGs-A108Y [2]): binds

B3: EAGs30bp (dsDNA)
DNA 1: GCACTGTGAATATCACTACAGCAACCTTAG
DNA 2: CTAAGGTTGCTGTAGTGATATTCACAGTGC
- binding result (ComEAGs-K166A): no binding
- binding signal (ComEAGs-K201A): ~2 fold decrease in apparent affinity vs wild-type
